Experimental findings from article PMC5779224, “Autoinhibition of ankyrin-B/G membrane target bindings by intrinsically disordered segments from the tail regions” (eLife, 2017) are described below.

What all share (conditions): both partners purified
The target in assay [1] is T1, AnkG 38–855 (AnkG MBD-AI-c protein; MBD + partial AI-c) (rat, UniProt O70511-1 38-855).
T1 construct: numbers count on: rat AnkG NM_001033984.1 (MBD-UPA); also called AnkG WT; source: E. coli BL21 (DE3), purified (Ni2+-NTA, size exclusion)
T1 sequence (looked up): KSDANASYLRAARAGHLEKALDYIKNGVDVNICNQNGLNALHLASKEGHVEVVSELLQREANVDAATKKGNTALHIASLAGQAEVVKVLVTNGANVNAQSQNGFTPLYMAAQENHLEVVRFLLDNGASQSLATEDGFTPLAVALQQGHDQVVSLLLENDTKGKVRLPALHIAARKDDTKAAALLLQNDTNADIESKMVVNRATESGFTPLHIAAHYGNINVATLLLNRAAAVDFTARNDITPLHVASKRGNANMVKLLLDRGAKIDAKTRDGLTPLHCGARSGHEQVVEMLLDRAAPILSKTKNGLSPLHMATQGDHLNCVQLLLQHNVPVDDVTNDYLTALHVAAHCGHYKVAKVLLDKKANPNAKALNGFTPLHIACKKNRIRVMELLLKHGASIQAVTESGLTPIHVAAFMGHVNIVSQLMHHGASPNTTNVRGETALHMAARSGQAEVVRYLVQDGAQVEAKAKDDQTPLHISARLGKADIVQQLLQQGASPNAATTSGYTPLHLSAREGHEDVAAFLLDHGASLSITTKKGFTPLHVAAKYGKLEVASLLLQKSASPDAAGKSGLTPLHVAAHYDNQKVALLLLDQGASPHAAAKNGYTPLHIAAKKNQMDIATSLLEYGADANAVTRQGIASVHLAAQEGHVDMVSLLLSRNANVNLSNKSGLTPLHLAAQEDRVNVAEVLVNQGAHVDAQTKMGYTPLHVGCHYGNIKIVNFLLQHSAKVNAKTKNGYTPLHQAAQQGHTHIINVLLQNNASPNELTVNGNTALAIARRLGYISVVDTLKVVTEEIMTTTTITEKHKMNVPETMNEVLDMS
The assay can be described thus: ITC; VP-ITC MicroCal, 25 °C; proteins in 50 mM Tris-HCl pH 7.8, 1 mM DTT, 1 mM EDTA with 100 mM or 500 mM NaCl as required; who was titrated is not told.

The target in assay [2] is T2, AnkB_MBD (AnkB ANK repeats only, aa 28–827) (human, UniProt Q01484-2 28-827).
T2 construct: ankyrin-B (AnkB), human 220 kDa isoform, residues 28-827: the 24 ANK repeats (MBD), no linker; numbers count on: human 220 kDa AnkB NM_020977.3; Poor quality in 100 mM NaCl buffer; also called AnkB 28–827; source: E. coli BL21 (DE3), purified (Ni2+-NTA, size exclusion)
T2 sequence (looked up): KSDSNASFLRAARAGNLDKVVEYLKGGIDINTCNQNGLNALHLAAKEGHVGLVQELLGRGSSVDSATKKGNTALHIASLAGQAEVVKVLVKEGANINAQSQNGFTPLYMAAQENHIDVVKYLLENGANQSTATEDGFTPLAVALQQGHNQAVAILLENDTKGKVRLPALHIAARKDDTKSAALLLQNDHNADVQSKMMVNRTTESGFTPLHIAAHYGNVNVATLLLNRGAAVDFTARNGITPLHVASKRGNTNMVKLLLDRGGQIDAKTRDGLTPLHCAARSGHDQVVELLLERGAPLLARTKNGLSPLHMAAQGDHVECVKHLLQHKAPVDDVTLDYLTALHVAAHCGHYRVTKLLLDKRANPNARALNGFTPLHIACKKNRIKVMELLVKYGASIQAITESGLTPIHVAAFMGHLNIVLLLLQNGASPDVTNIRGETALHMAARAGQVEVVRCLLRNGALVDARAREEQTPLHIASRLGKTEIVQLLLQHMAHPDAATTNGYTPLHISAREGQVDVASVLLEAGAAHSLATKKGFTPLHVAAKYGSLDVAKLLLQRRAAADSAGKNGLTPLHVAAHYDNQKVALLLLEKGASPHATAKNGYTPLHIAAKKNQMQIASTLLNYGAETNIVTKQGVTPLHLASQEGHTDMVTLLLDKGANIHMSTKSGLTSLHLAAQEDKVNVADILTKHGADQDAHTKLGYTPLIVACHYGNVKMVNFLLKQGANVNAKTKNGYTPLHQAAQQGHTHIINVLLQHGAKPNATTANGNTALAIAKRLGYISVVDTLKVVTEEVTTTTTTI
The assay is described as above.

Assay [3] addresses T2, AnkB_MBD (AnkB ANK repeats only, aa …). Briefly: fluorescence polarisation; PerkinElmer LS-55 fluorimeter with automated polarizer, 25 °C; one-site binding model. (In general: Fluorescence polarisation rises when a labelled molecule tumbles more slowly, as on binding a larger partner.)
Assay [4] deals with T3, AnkG 38–903 (MBD + AI-c + AI-b) (rat, UniProt O70511-1 38-903).
T3 construct: numbers count on: rat AnkG NM_001033984.1 (MBD-UPA); also called extended AnkG MBD; source: E. coli BL21 (DE3), purified (Ni2+-NTA, size exclusion)
T3 sequence (looked up): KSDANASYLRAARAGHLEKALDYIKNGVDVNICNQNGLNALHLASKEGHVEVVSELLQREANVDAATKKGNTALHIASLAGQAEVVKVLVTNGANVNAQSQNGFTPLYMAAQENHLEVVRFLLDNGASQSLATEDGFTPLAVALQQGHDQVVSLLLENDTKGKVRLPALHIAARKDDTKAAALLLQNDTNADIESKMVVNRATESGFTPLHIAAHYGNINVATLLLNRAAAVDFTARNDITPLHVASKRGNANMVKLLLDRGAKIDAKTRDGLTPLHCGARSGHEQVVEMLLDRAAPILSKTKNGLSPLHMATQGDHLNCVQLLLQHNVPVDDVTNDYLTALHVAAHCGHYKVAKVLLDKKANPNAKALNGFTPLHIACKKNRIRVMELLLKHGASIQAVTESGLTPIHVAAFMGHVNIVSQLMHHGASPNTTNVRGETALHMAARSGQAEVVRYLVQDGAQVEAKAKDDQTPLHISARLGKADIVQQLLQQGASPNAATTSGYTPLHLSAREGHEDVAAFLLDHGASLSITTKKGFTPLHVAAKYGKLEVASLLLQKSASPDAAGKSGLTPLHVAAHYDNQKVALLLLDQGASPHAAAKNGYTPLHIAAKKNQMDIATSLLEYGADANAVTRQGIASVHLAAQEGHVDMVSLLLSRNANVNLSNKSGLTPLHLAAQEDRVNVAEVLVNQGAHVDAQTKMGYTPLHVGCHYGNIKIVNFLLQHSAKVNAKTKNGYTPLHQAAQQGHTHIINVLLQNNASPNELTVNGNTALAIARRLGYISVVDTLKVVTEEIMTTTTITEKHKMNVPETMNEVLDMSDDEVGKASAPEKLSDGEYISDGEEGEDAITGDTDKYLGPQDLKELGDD
The assay can be described thus: ITC; VP-ITC MicroCal, 25 °C; proteins in 50 mM Tris-HCl pH 7.8, 1 mM DTT, 1 mM EDTA with 100 mM or 500 mM NaCl as required; who was titrated is not told. Background: ITC needs no label: the signal is the heat of the interaction.

The target in assay [5] is T4, AnkB 28–847 (MBD + partial AI-c) (human, UniProt Q01484-2 28-847).
T4 construct: ankyrin-B (AnkB), human 220 kDa isoform, residues 28-847: MBD and a short 20-residue linker; numbers count on: human 220 kDa AnkB NM_020977.3; also called extended MBD with a short 20-residue linker; source: E. coli BL21 (DE3), purified (Ni2+-NTA, size exclusion)
T4 sequence (looked up): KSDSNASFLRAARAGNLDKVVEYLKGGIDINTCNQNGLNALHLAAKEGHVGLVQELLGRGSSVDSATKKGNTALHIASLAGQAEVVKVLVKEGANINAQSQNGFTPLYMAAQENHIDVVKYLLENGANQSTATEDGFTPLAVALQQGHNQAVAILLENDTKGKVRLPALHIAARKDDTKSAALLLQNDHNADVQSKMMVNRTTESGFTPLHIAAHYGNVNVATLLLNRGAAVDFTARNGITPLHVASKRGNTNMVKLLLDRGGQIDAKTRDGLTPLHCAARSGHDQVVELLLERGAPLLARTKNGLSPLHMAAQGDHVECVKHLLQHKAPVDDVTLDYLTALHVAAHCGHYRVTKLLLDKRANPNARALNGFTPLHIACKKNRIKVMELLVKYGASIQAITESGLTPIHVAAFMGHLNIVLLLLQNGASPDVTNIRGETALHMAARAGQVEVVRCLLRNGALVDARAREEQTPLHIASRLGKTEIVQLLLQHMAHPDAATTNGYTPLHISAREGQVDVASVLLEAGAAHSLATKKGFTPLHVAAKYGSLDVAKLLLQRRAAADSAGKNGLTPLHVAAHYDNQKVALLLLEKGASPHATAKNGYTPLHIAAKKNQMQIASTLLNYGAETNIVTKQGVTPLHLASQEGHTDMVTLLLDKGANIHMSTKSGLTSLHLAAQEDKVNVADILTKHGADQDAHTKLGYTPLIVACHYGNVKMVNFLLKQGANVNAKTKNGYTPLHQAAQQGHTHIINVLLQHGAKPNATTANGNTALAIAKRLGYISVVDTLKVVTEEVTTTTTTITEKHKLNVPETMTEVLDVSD
Described as above.

Assay [6] deals with T2, AnkB_MBD (AnkB ANK repeats only, aa …). Briefly: ITC; VP-ITC MicroCal, 25 °C; buffer containing 500 mM NaCl, due to poor quality of AnkB 28-827 in 100 mM NaCl buffer.

B1: AnkG linker ΔAI-c (aa 861–920) (domain or fragment, rat, UniProt O70511-1 861-920, looked up)
chain: KASAPEKLSDGEYISDGEEGEDAITGDTDKYLGPQDLKELGDDSLPAEGYVGFSLGARSA
notes: ankyrin-G (AnkG), rat, linker residues 861-920, lacking AI-c; numbers count on: rat AnkG NM_001033984.1 (MBD-UPA); also called AnkG 861–920; shorter version of the linker; source: E. coli BL21 (DE3), purified (Ni2+-NTA, size exclusion)
As to B1, in assay [1], the binding result is “binds”.

B2: AnkB_AI-c Asn834Lys (domain or fragment, human, UniProt Q01484-2 828-852, looked up)
chain: TEKHKLKVPETMTEVLDVSDEEGDD
notes: numbers count on: human 220 kDa AnkB NM_020977.3; source: E. coli BL21 (DE3), purified (Ni2+-NTA, size exclusion)
As to B2, in assay [2], the binding result is on record as “binds”.

B3: AnkB_AI-c Leu843Gln (domain or fragment, human, UniProt Q01484-2 828-852, looked up)
chain: TEKHKLNVPETMTEVQDVSDEEGDD
notes: as for B2
As to B3, the binding result in assay [2] is listed as “binds”.

B4: AnkB_AI-c Met839Gln (domain or fragment, human, UniProt Q01484-2 828-852, looked up)
chain: TEKHKLNVPETQTEVLDVSDEEGDD
notes: as for B2
With B4, the binding result in assay [2] is recorded as “binds”.

B5: AnkB_AI-a peptide (aa 1623–1635) (peptide, UniProt Q01484-2 1623-1635, looked up)
peptide: HPPIVSEEDISVG
notes: ankyrin-B (AnkB), human 220 kDa isoform, 13-residue AI-a segment of the C-terminal tail, residues 1623-1635; numbers count on: human 220 kDa AnkB NM_020977.3; The text says a peptide encompassing the AI-a segment, so it may be longer than 1623-1635; The fluorescent label of the polarisation assay is not described here (protocol of Wang et al., 2014)
B5 showed a Kd in assay [3] of roughly 7.3 µM.

B6: E-cadherin (aa 734–884) (domain or fragment)
chain: not shown
notes: source: E. coli BL21 (DE3), purified (Ni2+-NTA, size exclusion)
As to B6, the binding result in assay [4], in assay [5] and in assay [1] was “binds” each time.

B7: AnkG long linker (aa 837–920; AI-c + AI-b) (domain or fragment, rat, UniProt O70511-1 837-920, looked up)
chain: TEKHKMNVPETMNEVLDMSDDEVGKASAPEKLSDGEYISDGEEGEDAITGDTDKYLGPQDLKELGDDSLPAEGYVGFSLGARSA
notes: numbers count on: rat AnkG NM_001033984.1 (MBD-UPA); source: E. coli BL21 (DE3), purified (Ni2+-NTA, size exclusion)
Consider B7, for which the binding result in assay [1] is “binds”.

B8: AnkB_AI-b (aa 865–896) (domain or fragment, human, UniProt Q01484-2 865-896, looked up)
chain: EDLKELGDDSLPSSQFLDGMNYLRYSLEGGRS
notes: numbers count on: human 220 kDa AnkB NM_020977.3; also called 32-aa fragment; source: E. coli BL21 (DE3), purified (Ni2+-NTA, size exclusion)
Regarding B8, the binding result in assay [5] is “binds”.

B9: AnkB entire linker (aa 828–965) (domain or fragment, human, UniProt Q01484-2 828-965, looked up)
chain: TEKHKLNVPETMTEVLDVSDEEGDDTMTGDGGEYLRPEDLKELGDDSLPSSQFLDGMNYLRYSLEGGRSDSLRSFSSDRSHTLSHASYLRDSAVMDDSVVIPSHQVSTLAKEAERNSYRLSWGTENLDNVALSSSPIH
notes: numbers count on: human 220 kDa AnkB NM_020977.3; also called Linker (contains AI-c + AI-b); AnkB linker region; source: E. coli BL21 (DE3), purified (Ni2+-NTA, size exclusion)
Take B9: the Kd in assay [6] was roughly 0.044 µM; in assay [5], roughly 4.2 µM.

B10: AnkG_AI-b (aa 875–903) (domain or fragment, rat, UniProt O70511-1 875-903, looked up)
chain: SDGEEGEDAITGDTDKYLGPQDLKELGDD
notes: as for B7
With B10, the binding result in assay [1] is given as “binds”.

By Kd is commonly meant the constant that tells how readily two partners part at equilibrium.
